# Measured values as given in patent publication US20250257112A1.
# Target: PTH receptor ("PTHIR")
# Assay: cell-based or functional assay
row,cAMP potency (EC50),Substance
1,0.28 nM,"PTH(1-84)-Fc with F34A, V35S (Fc fusion)"
2,0.24 nM,"PTH-66, PTH(1-74)-[F34A, V35S]-hFcLALA-deltaLys (Fc fusion)"
3,0.24 nM,"PTH-67, PTH(1-64)-[F34A, V35S]-hFcLALA-deltaLys (Fc fusion)"
4,0.21 nM,"PTH-68, PTH(1-54)-[F34A, V35S]-hFcLALA-deltaLys (Fc fusion)"
